Laboratory results published in article PMC3164844 (Proteins, 2011).
Changes are numbered by the printed parent chain. Names may count otherwise.

B1: GDPMK, Nudix GDP-mannose hydrolase from E. coli (product of the gene yffH), wild type (enzyme, UniProt P37128 1-191, looked up)
chain: MTQQITLIKDKILSDNYFTLHNITYDLTRKDGEVIRHKREVYDRGNGATILLYNTKKKTVVLIRQFRVATWVNGNESGQLIESCAGLLDNDEPEVCIRKEAIEETGYEVGEVRKLFELYMSPGGVTELIHFFIAEYSDNQRANAGGGVEDEDIEVLELPFSQALEMIKTGEIRDGKTVLLLNYLQTSHLMD
B2: GDPMK (Escherichia coli K-12; E151A) (protein)
chain: B1 chain with E151A
B3: GDPMK (Escherichia coli K-12; K176A) (protein)
chain: B1 chain with K176A
B4: GDPMK (Escherichia coli K-12; R44S) (protein)
chain: B1 chain with R44S
B5: GDPMK (Escherichia coli K-12; E149A) (protein)
chain: B1 chain with E149A
B6: GDPMK E100A mutant (enzyme, E. coli, UniProt P37128 1-191, looked up)
chain: B1 chain with E100A

Experiments:
GDPMK = GDPMK (Escherichia coli, UniProt P37128, E100A); assay: X-ray crystal structure, […] Å; format: binding; settings: Mg2+; active site; co-crystallised at pH 8.5
phosphate release = substrate: Nc1nc2c(ncn2[C@@H]2O[C@H](COP(=O)(O)OP(=O)(O)O[C@H]3O[C@H](CO)[C@@H](O)[C@H](O)[C@@H]3O)[C@@H](O)[C@H]2O)c(=O)[nH]1; assay: phosphate release; format: biochemical, Escherichia coli; settings: Mg2+, pH 8.5, 37 °C
SEC = molecular target: the molecule itself; assay: SEC
crystal structure = molecular target: the molecule itself; assay: crystal structure

GDPMK, sequence (P37128 whole entry E100A): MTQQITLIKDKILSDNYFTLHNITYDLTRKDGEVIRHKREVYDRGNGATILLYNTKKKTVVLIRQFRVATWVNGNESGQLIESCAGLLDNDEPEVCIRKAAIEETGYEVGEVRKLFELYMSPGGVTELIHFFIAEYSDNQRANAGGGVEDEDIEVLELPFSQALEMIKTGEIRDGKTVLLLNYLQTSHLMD

Molecule | Km (phosphate release) [µM] | kcat (phosphate release) [s⁻¹] | also measured
Nc1nc2c(ncn2[C@@H]2O[C@H](COP(=O)(O)OP(=O)(O)O[C@H]3O[C@H](CO)[C@@H](O)[C@H](O)[C@@H]3O)[C@@H](O)[C@H]2O)c(=O)[nH]1 [GDP-mannose] | – | – | X-ray crystal structure, 2.45 Å (GDPMK): The structure of the complex of the GDPMK E100A mutant with GDP-mannose and magnesium
B1 | 659 ± 65 | 90.2 ± 6.7 | stoichiometry N (SEC): 2
B2 | 594 ± 140 | 21.3 ± 4.6 | –
B3 | – | 0.11 ± 0.04 | –
B4 | – | 1.69 ± 0.12 | –
B5 | 555 ± 85 | 80.6 ± 6.3 | –
B6 | – | – | binding result (crystal structure): binds
